Source: PMC11208146, “Molecular basis for transposase activation by a dedicated AAA+ ATPase”

B1: random 60-mer target duplex (dsDNA)
DNA 1: TGCTTGCGATGATCCGACGTGTTAGCCACGCTGACTAGTTATGCCATGCCTCCCTTCAGG
DNA 2: CCTGAAGGGAGGCATGGCATAACTAGTCAGCGTGGCTAACACGTCGGATCATCGCAAGCA
B2: IS21 strand-transfer complex (STC) DNA (dsDNA)
DNA 1: CCTTCTGGGGAATTTTAAACCGGCGATTTTGGGGAAAAAATAATCGGCCTTGACAGCTGCACAGTAAGAGAATTATGCAGTGCTGCCATAACCATGAGTGATAACACTGCGGCCAACTTACTTCTGACAA
DNA 2: ATTCATGTCAAGGCCGATTATTTTTTCCCCAAAATCGCCGGTTTAAAATTCCCCAGAAGG
DNA 3: TTGTCAGAAGTAAGTTGGCCGCAGTGTTATCACTCATGGTTATGGCAGCACTGCATAATTCTCTTACTGT

Key:
IstB = IstB (Geobacillus stearothermophilus (IS5376, …, UniProt Q45619 1-251)); test: cryo-EM structure (3.2 A); size-exclusion co-elution; 1 mM ATP, 5 mM MgCl2; IstB-DNA: 20 mM HEPES pH 7.5, 150 mM NaCl, 5 mM MgCl2, 5% glycerol, 1 mM ATP, 1 mM DTT; dialysis at 4 C, SEC at room temperature; IstB:DNA 6.5:1. STC complex buffer not in the material; settings: protein: recombinant; tags: His6-MBP, cleaved with PreScission protease; chain copies: 10; blunt
IstA;IstB = IstA;IstB (Geobacillus stearothermophilus (IS5376, …, UniProt Q45618;Q45619 1-400;1-251, |)); test: negative-stain EM 2D averages; wild-type IstB; IstB-DNA: 20 mM HEPES pH 7.5, 150 mM NaCl, 5 mM MgCl2, 5% glycerol, 1 mM ATP, 1 mM DTT; dialysis at 4 C, SEC at room temperature; IstB:DNA 6.5:1. STC complex buffer not in the material; settings: protein: recombinant;recombinant; tags: C-terminal MBP-His6, cleaved with TEV protease;His6-MBP, cleaved with PreScission protease; chain copies: 4;20; 5' overhang 5 nt on non-transferred strand; half-substrates of 3 strands, 2 copies pair via the insertion site (5 bp spacing)
[1] = target: IstA;IstB E167Q (Walker B mutant) (Geobacillus stearothermophilus (IS5376, …, UniProt Q45618;Q45619 1-400;1-251, |E167Q)); test: cryo-EM structure (3.6 A; core 3.2 A); ATP, with ADP in IstA-bound IstB subunits; Mg2+; IstB-DNA: 20 mM HEPES pH 7.5, 150 mM NaCl, 5 mM MgCl2, 5% glycerol, 1 mM ATP, 1 mM DTT; dialysis at 4 C, SEC at room temperature; IstB:DNA 6.5:1. STC complex buffer not in the material; settings: protein: recombinant;recombinant; tags: C-terminal MBP-His6, cleaved with TEV protease;His6-MBP, cleaved with PreScission protease; chain copies: 4;20; 5' overhang 5 nt on non-transferred strand; half-substrates of 3 strands, 2 copies pair via the insertion site (5 bp spacing)

Binder	binding result (IstB)	binding result (IstA;IstB)	binding result [1]
B1	binds		
B2		binds	binds
